Measurements as given in publication PMC10871247 (bioRxiv, 2024).

Key:
native gel or EMSA = target: the molecule itself; assay: native gel or EMSA
native MS = target: the molecule itself; assay: native MS
SEC = target: the molecule itself; assay: SEC

B1: 3×Ala-MxEnc (natural protein, Myxococcus xanthus)
chain: MPDFLGHAENPLREEEWARLNETVIQVARRSLVGRRILDIYGPLGAGVQTVPYDEFQGVSPGAVDIVGEQETAMVFTDARKFKTIPIIYKDFLLHWRDIEAARTHNMPLDVSAAAGAAALCAQQEDELIFYGDARLGYEGLMTANGRLTVPLGDWTSPGGGFQAIVEATRKLNEQGHFGPYAVVLSPRLYSQLHRIYEAAAVLEIETIRQLASDGVYQSNRLRGESGVVVSTGRENMDLAVSMDMVAAYLGASRMNHPFRVLEALLLRIKHPDAICTLEGAGATERR
Native gel or EMSA
  binding result: binds

B2: 3×His-MxEnc (K199H/T200H/G201H triple point mutant of the M. xanthus encapsulin) (natural protein, Myxococcus xanthus)
chain: MPDFLGHAENPLREEEWARLNETVIQVARRSLVGRRILDIYGPLGAGVQTVPYDEFQGVSPGAVDIVGEQETAMVFTDARKFKTIPIIYKDFLLHWRDIEAARTHNMPLDVSAAAGAAALCAQQEDELIFYGDARLGYEGLMTANGRLTVPLGDWTSPGGGFQAIVEATRKLNEQGHFGPYAVVLSPRLYSQLHRIYEHHHVLEIETIRQLASDGVYQSNRLRGESGVVVSTGRENMDLAVSMDMVAAYLGASRMNHPFRVLEALLLRIKHPDAICTLEGAGATERR
Native MS
  stoichiometry N: 60

B3: 3×Asp-MxEnc (natural protein, Myxococcus xanthus)
chain: MPDFLGHAENPLREEEWARLNETVIQVARRSLVGRRILDIYGPLGAGVQTVPYDEFQGVSPGAVDIVGEQETAMVFTDARKFKTIPIIYKDFLLHWRDIEAARTHNMPLDVSAAAGAAALCAQQEDELIFYGDARLGYEGLMTANGRLTVPLGDWTSPGGGFQAIVEATRKLNEQGHFGPYAVVLSPRLYSQLHRIYEDDDVLEIETIRQLASDGVYQSNRLRGESGVVVSTGRENMDLAVSMDMVAAYLGASRMNHPFRVLEALLLRIKHPDAICTLEGAGATERR
SEC
  binding result: binds
